These results are taken from patent US20250367128A1, “BIODEGRADABLE LIPIDOIDS AND COMPOSITIONS AND METHODS OF USE THEREOF FOR LIVER TARGETED DELIVERY” (The Trustees of the University of Pennsylvania, priority 2022, published 2025).

The subject of this series is hPCSK9 exon 7. Description: In vitro validation of SpCas9 gRNA (plasmid transfection of cell line). The format is cell-based, human. The conditions noted are these: data not shown. The source says: In this study, we perform pre-clinical gene editing studies using a PCSK9-hE7 mouse line having a humanized Pcsk9 gene. […] This allows for studies to use renucleic acids which can be directly translated to NHP or human. PCSK9 gene is a “safe harbor” for insertion of a gene therapy mini-gene. Previously, the SpCas9 gRNAs targeting hPCSK9 exon 7 was validated in vitro (plasmid transfection of cell line) with sgR1 yielded 32% indel formation (data not shown).

Strand notation (5' to 3'): a small letter for the sugar, then the base; units joined by * are phosphorothioate-linked, units joined directly phosphodiester-linked; [ ] holds rarer units or linkages, { } end groups; capitals alone tell only the bases. [PACE] = phosphonoacetate internucleotide linkage; m = 2'-O-methyl; r = 2'-OH (RNA)

B1: sgR1: SpCas9 gRNA targeting hPCSK9 exon 7, SEQ ID NO: 1 (nucleic acid)
guide: mG*mA*mC*rCrArArCrUrUrUrGrGrCrCrGrCrUrGrUrGrGrUrUrUrUrArGrAmGmCmUmAmGmAmAmAmUmAmGmCrArArGrUrUrArArArArUrArArGrGrCrUrArGrUrCrCrGrUrUrArUrCrAmAmCmUmUmGmAmAmAmAmAmGmUmGmGmCmAmCmCmGmAmGmUmCmGmGmUmGmCmU[PACE]mU[PACE]mU[PACE]mU
In turn, B1 came in with an indel formation of 32%.
